According to patent US20080313749A1:

Key:
[1] = biological target: … (SEQ ID NO:101), scaffold-bound CCR5-derived peptide 447; test: peptide microarray ELISA, 2D7 at 0.1 µg/ml
[2] = biological target: … (SEQ ID NO:109), scaffold-bound CCR5-derived peptide 1158; test: peptide microarray ELISA, 2D7 at 0.1 µg/ml
[3] = biological target: … (SEQ ID NO:107), scaffold-bound CCR5-derived peptide 1159; test: peptide microarray ELISA, 2D7 at 0.1 µg/ml
[4] = biological target: … (SEQ ID NO:102), scaffold-bound CCR5-derived peptide 443; test: peptide microarray ELISA, 2D7 at 0.1 µg/ml
[5] = biological target: … (SEQ ID NO:103), scaffold-bound CCR5-derived peptide 449; test: peptide microarray ELISA, 2D7 at 0.1 µg/ml
[6] = biological target: … (SEQ ID NO:104), scaffold-bound CCR5-derived peptide 1160; test: peptide microarray ELISA, 2D7 at 0.1 µg/ml
[7] = biological target: … (SEQ ID NO:105), scaffold-bound CCR5-derived peptide 450; test: peptide microarray ELISA, 2D7 at 0.1 µg/ml
[8] = biological target: … (SEQ ID NO:106), scaffold-bound CCR5-derived peptide 702; test: peptide microarray ELISA, 2D7 at 0.1 µg/ml
[9] = biological target: … (SEQ ID NO:108), scaffold-bound CCR5-derived peptide 719; test: peptide microarray ELISA, 2D7 at 0.1 µg/ml
… (SEQ ID NO:108), scaffold-bound CCR5-derived peptide 719, sequence (peptide, as listed by the source): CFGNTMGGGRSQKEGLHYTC

[10] = biological target: … (SEQ ID NO:101), scaffold-bound CCR5-derived peptide 447; test: peptide microarray ELISA, 2D7 at 1 µg/ml
[11] = biological target: … (SEQ ID NO:109), scaffold-bound CCR5-derived peptide 1158; test: peptide microarray ELISA, 2D7 at 1 µg/ml
[12] = biological target: … (SEQ ID NO:107), scaffold-bound CCR5-derived peptide 1159; test: peptide microarray ELISA, 2D7 at 1 µg/ml
[13] = biological target: … (SEQ ID NO:102), scaffold-bound CCR5-derived peptide 443; test: peptide microarray ELISA, 2D7 at 1 µg/ml
[14] = biological target: … (SEQ ID NO:103), scaffold-bound CCR5-derived peptide 449; test: peptide microarray ELISA, 2D7 at 1 µg/ml
[15] = biological target: … (SEQ ID NO:104), scaffold-bound CCR5-derived peptide 1160; test: peptide microarray ELISA, 2D7 at 1 µg/ml
[16] = biological target: … (SEQ ID NO:105), scaffold-bound CCR5-derived peptide 450; test: peptide microarray ELISA, 2D7 at 1 µg/ml
[17] = biological target: … (SEQ ID NO:106), scaffold-bound CCR5-derived peptide 702; test: peptide microarray ELISA, 2D7 at 1 µg/ml
[18] = biological target: … (SEQ ID NO:108), scaffold-bound CCR5-derived peptide 719; test: peptide microarray ELISA, 2D7 at 1 µg/ml
[19] = biological target: … (SEQ ID NO:101), scaffold-bound CCR5-derived peptide 447; test: peptide microarray ELISA, 2D7 at 10 µg/ml
[20] = biological target: … (SEQ ID NO:109), scaffold-bound CCR5-derived peptide 1158; test: peptide microarray ELISA, 2D7 at 10 µg/ml
[21] = biological target: … (SEQ ID NO:107), scaffold-bound CCR5-derived peptide 1159; test: peptide microarray ELISA, 2D7 at 10 µg/ml
[22] = biological target: … (SEQ ID NO:102), scaffold-bound CCR5-derived peptide 443; test: peptide microarray ELISA, 2D7 at 10 µg/ml
[23] = biological target: … (SEQ ID NO:103), scaffold-bound CCR5-derived peptide 449; test: peptide microarray ELISA, 2D7 at 10 µg/ml
[24] = biological target: … (SEQ ID NO:104), scaffold-bound CCR5-derived peptide 1160; test: peptide microarray ELISA, 2D7 at 10 µg/ml
[25] = biological target: … (SEQ ID NO:105), scaffold-bound CCR5-derived peptide 450; test: peptide microarray ELISA, 2D7 at 10 µg/ml
[26] = biological target: … (SEQ ID NO:106), scaffold-bound CCR5-derived peptide 702; test: peptide microarray ELISA, 2D7 at 10 µg/ml
[27] = biological target: … (SEQ ID NO:108), scaffold-bound CCR5-derived peptide 719; test: peptide microarray ELISA, 2D7 at 10 µg/ml

anti-CCR5 antibody 2D7
microarray ELISA signal (absorbance 405 nm, CCD camera) [1]: 261
microarray ELISA signal (absorbance 405 nm, CCD camera) [2]: 132
microarray ELISA signal (absorbance 405 nm, CCD camera) [3]: 213
microarray ELISA signal (absorbance 405 nm, CCD camera) [4]: 148
microarray ELISA signal (absorbance 405 nm, CCD camera) [5]: 99
microarray ELISA signal (absorbance 405 nm, CCD camera) [6]: 315
microarray ELISA signal (absorbance 405 nm, CCD camera) [7]: 107
microarray ELISA signal (absorbance 405 nm, CCD camera) [8]: 68
microarray ELISA signal (absorbance 405 nm, CCD camera) [9]: 113
microarray ELISA signal (absorbance 405 nm, CCD camera) [10]: 2710
microarray ELISA signal (absorbance 405 nm, CCD camera) [11]: 416
microarray ELISA signal (absorbance 405 nm, CCD camera) [12]: 1150
microarray ELISA signal (absorbance 405 nm, CCD camera) [13]: 2640
microarray ELISA signal (absorbance 405 nm, CCD camera) [14]: 2610
microarray ELISA signal (absorbance 405 nm, CCD camera) [15]: 2470
microarray ELISA signal (absorbance 405 nm, CCD camera) [16]: 2360
microarray ELISA signal (absorbance 405 nm, CCD camera) [17]: 1580
microarray ELISA signal (absorbance 405 nm, CCD camera) [18]: 678
microarray ELISA signal (absorbance 405 nm, CCD camera) [19]: 2940
microarray ELISA signal (absorbance 405 nm, CCD camera) [20]: 2380
microarray ELISA signal (absorbance 405 nm, CCD camera) [21]: 2640
microarray ELISA signal (absorbance 405 nm, CCD camera) [22]: 3090
microarray ELISA signal (absorbance 405 nm, CCD camera) [23]: 2890
microarray ELISA signal (absorbance 405 nm, CCD camera) [24]: 2760
microarray ELISA signal (absorbance 405 nm, CCD camera) [25]: 2850
microarray ELISA signal (absorbance 405 nm, CCD camera) [26]: 2790
microarray ELISA signal (absorbance 405 nm, CCD camera) [27]: 2820
